According to patent US20070190603A1 (MIT, published 2007):

B1: EAK12 peptide, Ac-HN-AEAKAEAEAKAK-CONH2 (peptide)
peptide: Ac-AEAKAEAEAKAK-NH2
B2: EAK16 peptide, Ac-HN-AEAEAKAKAEAEAKAK-CONH2 (peptide)
peptide: Ac-AEAEAKAKAEAEAKAK-NH2
notes: Self-assembling amphiphilic peptide

Target: the molecule itself
Assay: self-assembly into a macroscopic membrane in DMEM; phase-contrast microscopy and Congo Red staining
Description: The peptides were initially dissolved in water (5 mg/ml) or in 23% acetonitrile (10 mg/ml). A volume of 5-10 microliters of the dissolved peptides were applied to the DMEM medium, PBS or water. The formation of the membrane was first observed under a phase-contrast microscope and then, by the naked eye after staining with Congo Red.

Protein	binding result
B1	binds
B2	binds
